Data set [1] deals with HeLa Kyoto. Nature of the data set: solubility in G1/S (NP-40 vs SDS abundance) (log2 ratio); higher = more soluble. The conditions noted are these: cell cycle stage: G1/S.
For data set [2], the system named is HeLa Kyoto. Nature of the data set: melting temperature (median over replicates), in situ; higher = more thermally stable.
In data set [3] the test system is HeLa Kyoto. In words: solubility change mitosis vs G1/S (difference of NP-40 vs SDS log2 ratios) (log2 ratio difference); higher = more soluble in mitosis.
In data set [4] the test system is HeLa Kyoto. Nature of the data set: thermal stability score vs G1/S (z-score of summed log2 fold changes over temperatures); higher = more thermally stable than in G1/S.
Setting [5] is: cell cycle stage: early G1 (4.5 h after nocodazole release).
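For melting temperature (median over replicates), in situ in this document: HeLa Kyoto cells synchronized by double thymidine or nocodazole block, proteins quantified by TMT10plex mass spectrometry, three independent biological replicates.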
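For solubility change mitosis vs G1/S (difference of NP-40 vs SDS log2 ratios) in this document: synchronized HeLa Kyoto cells (double thymidine block for G1/S, nocodazole release for mitosis), protein amounts in NP-40 versus SDS lysates quantified by mass spectrometry, three biological replicates.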
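For solubility in G1/S (NP-40 vs SDS abundance) in this document: HeLa Kyoto cells arrested at G1/S by double thymidine block, proteins quantified by TMT10plex mass spectrometry in mild NP-40 versus SDS extracts, three biological replicates.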
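For thermal stability score vs G1/S (z-score of summed log2 fold changes over temperatures) in this document: synchronized HeLa Kyoto cells, proteins quantified by TMT10plex mass spectrometry, three biological replicates, mitosis taken 0.5 h after nocodazole release, G1/S directly after double thymidine block.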

As to “MALRPGAGSGGGGAAGAGAGSAGGGGFMFPVAGGIRPPQAGLMPMQQQGFPMVSVMQPNMQGIMGMNYSSQMSQGPIAMQAGIPMGPMPAAGMPYLGQAPFLGMRPPGPQYTPDMQKQFAEEQQKRFEQQQKLLEEERKRRQFEEQKQKLRLLSSVKPKTGEKSRDDALEAIKGNLDGFSRDAKMHPTPASHPKKPGPSLEEKFLVSCDISTSGQEQIKLNTSEVGHKALGPGSSKKYPSLMASNGVAVDGCVSGTTTAEAENTSDQNLSIEESGVGVFPSQDPAQPRMPPWIYNESLVPDAYKKILETTMTPTGIDTAKLYPILMSSGLPRETLGQIWALANRTTPGKLTKEELYTVLAMIAVTQRGVPAMSPDALNQFPAAPIPTLSGFSMTLPTPVSQPTVIPSGPAGSMPLSLGQPVMGINLVGPVGGAAAQASSGFIPTYPANQVVKPEEDDFQDFQDASKSGSLDDSFSDFQELPASSKTSNSQHGNSAPSLLMPLPGTKALPSMDKYAVFKGIAADKSSENTVPPGDPGDKYSAFRELEQTAENKPLGESFAEFRSAGTDDGFTDFKTADSVSPLEPPTKDKTFPPSFPSGTIQQKQQTQVKNPLNLADLDMFSSVNCSSEKPLSFSAVFSTSKSVSTPQSTGSAATMTALAATKTSSLADDFGEFSLFGEYSGLAPVGEQDDFADFMAFSNSSISSEQKPDDKYDALKEEASPVPLTSNVGSTVKGGQNSTAASTKYDVFRQLSLEGSGLGVEDLKDNTPSGKSDDDFADFHSSKFSSINSDKSLGEKAVAFRHTKEDSASVKSLDLPSIGGSSVGKEDSEDALSVQFDMKLADVGGDLKHVMSDSSLDLPTVSGQHPPAADIEDLKYAAFGSYSSNFAVSTLTSYDWSDRDDATQGRKLSPFVLSAGSGSPSATSILQKKETSFGSSENITMTSLSKVTTFVSEDALPETTFPALASFKDTIPQTSEQKEYENRDYKDFTKQDLPTAERSQEATCPSPASSGASQETPNECSDDFGEFQSEKPKISKFDFLVATSQSKMKSSEEMIKSELATFDLSVQGSHKRSLSLGDKEISRSSPSPALEQPFRDRSNTLNEKPALPVIRDKYKDLTGEVEENERYAYEWQRCLGSALNVIKKANDTLNGISSSSVCTEVIQSAQGMEYLLGVVEVYRVTKRVELGIKATAVCSEKLQQLLKDIDKVWNNLIGFMSLATLTPDENSLDFSSCMLRPGIKNAQELACGVCLLNVDSRSRKEEKPAEEHPKKAFNSETDSFKLAYGGHQYHASCANFWINCVEPKPPGLVLPDLL [SYNRG]”, the “solubility in G1/S (log2)” value in data set [1] was found to be 0.0486. Moreover, the melting temperature came to 49.9 °C in data set [2] (cell cycle stage: G1/S) and 49.7 °C in data set [2] (cell cycle stage: mitosis). For the same sequence, in data set [3], the “solubility change mitosis (log2)” value is -0.164. Moreover, the thermal stability score in data set [4] (setting [5]) is 0.188; in data set [4] (cell cycle stage: mitosis), 1.39.

On to “MALSDEPAAGGPEEEAEDETLAFGAALEAFGESAETRALLGRLREVHGGGAEREVALERFRVIMDKYQEQPHLLDPHLEWMMNLLLDIVQDQTSPASLVHLAFKFLYIITKVRGYKTFLRLFPHEVADVEPVLDLVTIQNPKDHEAWETRYMLLLWLSVTCLIPFDFSRLDGNLLTQPGQARMSIMDRILQIAESYLIVSDKARDAAAVLVSRFITRPDVKQSKMAEFLDWSLCNLARSSFQTMQGVITMDGTLQALAQIFKHGKREDCLPYAATVLRCLDGCRLPESNQTLLRKLGVKLVQRLGLTFLKPKVAAWRYQRGCRSLAANLQLLTQGQSEQKPLILTEDDDEDDDVPEGVERVIEQLLVGLKDKDTVVRWSAAKGIGRMAGRLPRALADDVVGSVLDCFSFQETDKAWHGGCLALAELGRRGLLLPSRLVDVVAVILKALTYDEKRGACSVGTNVRDAACYVCWAFARAYEPQELKPFVTAISSALVIAAVFDRDINCRRAASAAFQENVGRQGTFPHGIDILTTADYFAVGNRSNCFLVISVFIAGFPEYTQPMIDHLVTMKISHWDGVIRELAARALHNLAQQAPEFSATQVFPRLLSMTLSPDLHMRHGSILACAEVAYALYKLAAQENRPVTDHLDEQAVQGLKQIHQQLYDRQLYRGLGGQLMRQAVCVLIEKLSLSKMPFRGDTVIDGWQWLINDTLRHLHLISSHSRQQMKDAAVSALAALCSEYYMKEPGEADPAIQEELITQYLAELRNPEEMTRCGFSLALGALPGFLLKGRLQQVLTGLRAVTHTSPEDVSFAESRRDGLKAIARICQTVGVKAGAPDEAVCGENVSQIYCALLGCMDDYTTDSRGDVGTWVRKAAMTSLMDLTLLLARSQPELIEAHTCERIMCCVAQQASEKIDRFRAHAASVFLTLLHFDSPPIPHVPHRGELEKLFPRSDVASVNWSAPSQAFPRITQLLGLPTYRYHVLLGLVVSLGGLTESTIRHSTQSLFEYMKGIQSDPQALGSFSGTLLQIFEDNLLNERVSVPLLKTLDHVLTHGCFDIFTTEEDHPFAVKLLALCKKEIKNSKDIQKLLSGIAVFCEMVQFPGDVRRQALLQLCLLLCHRFPLIRKTTASQVYETLLTYSDVVGADVLDEVVTVLSDTAWDAELAVVREQRNRLCDLLGVPRPQLVPQPGAC [TBCD]”, for which, in data set [1], the “solubility in G1/S (log2)” value is -0.194. The melting temperature in data set [2] (cell cycle stage: G1/S) stood at 50 °C; in data set [2] (cell cycle stage: mitosis), 50.2 °C. Besides, the “solubility change mitosis (log2)” value in data set [3] was -0.154. Further, the values for the thermal stability score in data set [4] (setting [5]) and in data set [4] (cell cycle stage: mitosis) were -0.177 and 0.431, respectively.

Consider “MALSKSMHARNRYKDKPPDFAYLASKYPDFKQHVQINLNGRVSLNFKDPEAVRALTCTLLREDFGLSIDIPLERLIPTVPLRLNYIHWVEDLIGHQDSDKSTLRRGIDIGTGASCIYPLLGATLNGWYFLATEVDDMCFNYAKKNVEQNNLSDLIKVVKVPQKTLLMDALKEESEIIYDFCMCNPPFFANQLEAKGVNSRNPRRPPPSSVNTGGITEIMAEGGELEFVKRIIHDSLQLKKRLRWYSCMLGKKCSLAPLKEELRIQGVPKVTYTEFCQGRTMRWALAWSFYDDVTVPSPPSKRRKLEKPRKPITFVVLASVMKELSLKASPLRSETAEGIVVVTTWIEKILTDLKVQHKRVPCGKEEVSLFLTAIENSWIHLRRKKRERVRQLREVPRAPEDVIQALEEKKPTPKESGNSQELARGPQERTPCGPALREGEAAAVEGPCPSQESLSQEENPEPTEDERSEEKGGVEVLESCQGSSNGAQDQEASEQFGSPVAERGKRLPGVAGQYLFKCLINVKKEVDDALVEMHWVEGQNRDLMNQLCTYIRNQIFRLVAVN [METTL16]”, for which, in data set [1], the “solubility in G1/S (log2)” value worked out at 0.161. For the same sequence, the melting temperature in data set [2] (cell cycle stage: G1/S) amounted to 50.2 °C; in data set [2] (cell cycle stage: mitosis) it was 50.8 °C. The “solubility change mitosis (log2)” value in data set [3] is -0.2. The thermal stability score in data set [4] (setting [5]) turned out to be 1.61; in data set [4] (cell cycle stage: mitosis), 2.17.

Take “MALSRGLPRELAEAVAGGRVLVVGAGGIGCELLKNLVLTGFSHIDLIDLDTIDVSNLNRQFLFQKKHVGRSKAQVAKESVLQFYPKANIVAYHDSIMNPDYNVEFFRQFILVMNALDNRAARNHVNRMCLAADVPLIESGTAGYLGQVTTIKKGVTECYECHPKPTQRTFPGCTIRNTPSEPIHCIVWAKYLFNQLFGEEDADQEVSPDRADPEAAWEPTEAEARARASNEDGDIKRISTKEWAKSTGYDPVKLFTKLFKDDIRYLLTMDKLWRKRKPPVPLDWAEVQSQGEETNASDQQNEPQLGLKDQQVLDVKSYARLFSKSIETLRVHLAEKGDGAELIWDKDDPSAMDFVTSAANLRMHIFSMNMKSRFDIKSMAGNIIPAIATTNAVIAGLIVLEGLKILSGKIDQCRTIFLNKQPNPRKKLLVPCALDPPNPNCYVCASKPEVTVRLNVHKVTVLTLQDKIVKEKFAMVAPDVQIEDGKGTILISSEEGETEANNHKKLSEFGIRNGSRLQADDFLQDYTLLINILHSEDLGKDVEFEVVGDAPEKVGPKQAEDAAKSITNGSDDGAQPSTSTAQEQDDVLIVDSDEEDSSNNADVSEEERSRKRKLDEKENLSAKRSRIEQKEELDDVIALD [UBA2]”: the “solubility in G1/S (log2)” value in data set [1] turned out to be 0.146. The figures for the melting temperature in data set [2] (cell cycle stage: G1/S) and in data set [2] (cell cycle stage: mitosis) were 52.2 °C and 52 °C, respectively. Moreover, the “solubility change mitosis (log2)” value in data set [3] was -0.204. In addition, the thermal stability score is -0.2 in data set [4] (setting [5]) and 0.883 in data set [4] (cell cycle stage: mitosis).

Turning to “MALTRPVRLFSLVTRLLLAPRRGLTVRSPDEPLPVVRIPVALQRQLEQRQSRRRNLPRPVLVRPGPLLVSARRPELNQPARLTLGRWERAPLASQGWKSRRARRDHFSIERAQQEAPAVRKLSSKGSFADLGLEPRVLHALQEAAPEVVQPTTVQSSTIPSLLRGRHVVCAAETGSGKTLSYLLPLLQRLLGQPSLDSLPIPAPRGLVLVPSRELAQQVRAVAQPLGRSLGLLVRDLEGGHGMRRIRLQLSRQPSADVLVATPGALWKALKSRLISLEQLSFLVLDEADTLLDESFLELVDYILEKSHIAEGPADLEDPFNPKAQLVLVGATFPEGVGQLLNKVASPDAVTTITSSKLHCIMPHVKQTFLRLKGADKVAELVHILKHRDRAERTGPSGTVLVFCNSSSTVNWLGYILDDHKIQHLRLQGQMPALMRVGIFQSFQKSSRDILLCTDIASRGLDSTGVELVVNYDFPPTLQDYIHRAGRVGRVGSEVPGTVISFVTHPWDVSLVQKIELAARRRRSLPGLASSVKEPLPQAT [DDX28]”, the “solubility in G1/S (log2)” value in data set [1] was -0.336. The melting temperature in data set [2] (cell cycle stage: G1/S) worked out at 50 °C; in data set [2] (cell cycle stage: mitosis), 50.9 °C. Also, in data set [3], the “solubility change mitosis (log2)” value came out at 0.0712. Also, the thermal stability score in data set [4] (setting [5]) is -0.0521; in data set [4] (cell cycle stage: mitosis), 1.54.

Source of the values: the supplement of paper PMC5998384.
